Test results published in paper PMC8810855.

Target: Arp2/3 complex (bovine brain) (bovine) (UniProt P61157)
Assay: ITC; full-length Arpin in the syringe, ATP-bound Arp2/3 complex in the cell; 25 °C; Arp buffer (20 mM HEPES pH 7.5, 100 mM KCl, 1 mM MgCl2, 1 mM EGTA, 1 mM DTT) with 0.2 mM ATP; one-site isotherm

- Kd: 1240 nM
- stoichiometry N: 1.06
Substance: full-length human Arpin (from UniProt Q7Z6K5 1-226) (natural protein)
